{"source": "paper PMC7503845", "molecules": {"B1": {"name": "full length recombinant human disheveled 2 (Dvl2) (natural protein)", "chain": "MAGSSTGGGGVGETKVIYHLDEEETPYLVKIPVPAERITLGDFKSVLQRPAGAKYFFKSMDQDFGVVKEEISDDNARLPCFNGRVVSWLVSSDNPQPEMAPPVHEPRAELAPPAPPLPPLPPERTSGIGDSRPPSFHPNVSSSHENLEPETETESVVSLRRERPRRRDSSEHGAGGHRTGGPSRLERHLAGYESSSTLMTSELESTSLGDSDEEDTMSRFSSSTEQSSASRLLKRHRRRRKQRPPRLERTSSFSSVTDSTMSLNIITVTLNMEKYNFLGISIVGQSNERGDGGIYIGSIMKGGAVAADGRIEPGDMLLQVNDMNFENMSNDDAVRVLRDIVHKPGPIVLTVAKCWDPSPQAYFTLPRNEPIQPIDPAAWVSHSAALTGTFPAYPGSSSMSTITSGSSLPDGCEGRGLSVHTDMASVTKAMAAPESGLEVRDRMWLKITIPNAFLGSDVVDWLYHHVEGFPERREARKYASGLLKAGLIRHTVNKITFSEQCYYVFGDLSGGCESYLVNLSLNDNDGSSGASDQDTLAPLPGATPWPLLPTFSYQYPAPHPYSPQPPPYHELSSYTYGGGSASSQHSEGSRSSGSTRSDGGAGRTGRPEERAPESKSGSGSESEPSSRGGSLRRGGEASGTSDGGPPPSRGSTGGAPNLRAHPGLHPYGPPPGMALPYNPMMVVMMPPPPPPVPPAVQPPGAPPVRDLGSVPPELTASRQSFHMAMGNPSEFFVDVM"}}, "key": {"[1]": {"target": "full length recombinant human active CK1 epsilon (CK1ε) (human) (UniProt P49674)", "sequence (P49674 whole entry)": "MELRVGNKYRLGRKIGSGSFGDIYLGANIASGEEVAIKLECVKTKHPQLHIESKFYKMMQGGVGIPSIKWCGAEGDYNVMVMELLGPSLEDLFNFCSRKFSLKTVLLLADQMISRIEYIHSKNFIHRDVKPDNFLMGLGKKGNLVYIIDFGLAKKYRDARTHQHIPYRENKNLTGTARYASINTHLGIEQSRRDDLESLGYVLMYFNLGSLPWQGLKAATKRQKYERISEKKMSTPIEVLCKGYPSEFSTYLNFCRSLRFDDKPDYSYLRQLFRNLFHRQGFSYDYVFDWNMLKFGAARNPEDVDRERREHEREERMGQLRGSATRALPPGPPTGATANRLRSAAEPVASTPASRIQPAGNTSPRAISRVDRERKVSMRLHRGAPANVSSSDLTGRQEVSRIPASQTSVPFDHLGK"}, "[2]": {"target": "full length recombinant human active CK1 epsilon (CK1ε) (human) (UniProt P49674)", "remark": "listed apart in the source"}, "[3]": {"target": "full length recombinant human active CK1 epsilon (CK1ε) (human) (UniProt P49674)", "remark": "listed apart in the source"}, "[4]": {"target": "full length recombinant human active CK1 epsilon (CK1ε) (human) (UniProt P49674)", "remark": "listed apart in the source"}}}
{"molecule": "recombinant human DDX3X wild-type (WT) (from UniProt O00571 1-662) (enzyme)", "values": [{"measurement": "Km of CK1ε for DDX3X in the kinase reaction (33P incorporation; DDX3X 0.06-1 μM, ATP fixed at 30 μM, 25 ng CK1ε, 15 min)", "setting": "[1]", "value": 0.2, "unit": "µM"}, {"measurement": "Km^DDX3X of the kinase reaction at fixed ATP of 15, 30, 60 and 120 μM (0.6, 0.5, 0.7 and 0.7 μM)", "setting": "[2]", "value": 0.7, "unit": "µM"}, {"measurement": "kcat / Km^DDX3X of the kinase reaction at fixed ATP of 15, 30, 60 and 120 μM (5.5, 8.4, 11.9 and 18.9 min^-1 μM^-1)", "setting": "[2]", "value": 315000, "unit": "M⁻¹ s⁻¹"}]}
{"molecule": "dephosphorylated native casein mixture (Casein)", "values": [{"measurement": "Km^Casein of the kinase reaction at fixed ATP of 7.5, 15, 30 and 60 μM (4.6, 3.9, 4.8 and 4.0 μM)", "setting": "[3]", "value": 4.8, "unit": "µM"}, {"measurement": "kcat / Km^Casein of the kinase reaction at fixed ATP of 7.5, 15, 30 and 60 μM (2.5, 4.1, 6.3 and 10.8 min^-1 μM^-1)", "setting": "[3]", "value": 180000, "unit": "M⁻¹ s⁻¹"}]}
{"molecule": "B1", "values": [{"measurement": "Km^Dvl2 of the kinase reaction at fixed ATP of 7.5, 30, 60 and 120 μM (0.5, 1.1, 0.9 and 0.4 μM)", "setting": "[4]", "value": 1.1, "unit": "µM"}, {"measurement": "kcat / Km^Dvl2 of the kinase reaction at fixed ATP of 7.5, 30, 60 and 120 μM (76.4, 98.8, 159.3 and 261.7 min^-1 μM^-1)", "setting": "[4]", "value": "4.36e+06", "unit": "M⁻¹ s⁻¹"}]}
